# Data published in patent publication US20210324063A1.
# Biological target: recombinant human VEGF-165 (R&D Systems) (human) (UniProt P15692)
# Sequence (P15692 other isoform, or with tags, fused parts or gaps limits assumed): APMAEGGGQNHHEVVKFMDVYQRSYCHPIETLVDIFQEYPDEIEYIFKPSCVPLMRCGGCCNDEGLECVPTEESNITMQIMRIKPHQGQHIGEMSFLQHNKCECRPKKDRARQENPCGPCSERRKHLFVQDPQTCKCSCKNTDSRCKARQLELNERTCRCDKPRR
substance,measurement,value
Eylea (aflibercept) (Fc fusion),"IC50, inhibition of VEGF-stimulated HuRMVEC proliferation (WST-1, OD450)",683 pM
